Experimental data as given in publication PMC11050134.

Columns and labels:
[1] = target: influenza viral envelope hemagglutinin, vaccine preparation (Denka-Seken) with a mixture of the hema (influenza A virus (H1N1, H3N2) and influenza B virus); assay: SPR; BIAcore X100; […]; HBS-N (10 mM HEPES, 150 mM NaCl, pH 7.4), 30 μL/min, […], dissociation 600 s; Langmuir 1:1 fit
[2] = target: Halimeda borneensis lectin HBL40 (Halimeda borneensis); assay: SDS-PAGE, non-reducing against reducing; purified HBL40 on 12% gel with and without 2% 2-mercaptoethanol, Coomassie stain; about 40 kDa non-reducing, 20 kDa reducing
asialo-fetuin = asialo-fetuin (UniProt P12763)
[3] = target: porcine thyroglobulin (porcine) (UniProt F1RRV3)
[4] = target: bovine submaxillary mucin (bovine)
asialo-transferrin = asialo-transferrin (UniProt P02787)
[5] = target: asialo-bovine submaxillary mucin (bovine)
fetuin = fetuin (UniProt P12763)
transferrin = transferrin (UniProt P02787)
[6] = target: asialo-porcine thyroglobulin (porcine) (UniProt F1RRV3)

## Halimeda borneensis lectin HBL40 (natural protein)
[1]
  Kd: 1.21 µM
  koff: 0.0433 s⁻¹
  kon: 35600 M⁻¹ s⁻¹
[2]
  stoichiometry N: 2
asialo-fetuin
  hemagglutination inhibition (trypsin-treated rabbit erythrocytes): lowest concentration of glycoprotein that completely inhibited the hemagglutination activity of a lectin solution of titer 4: 125 µg/mL
[3]
  hemagglutination inhibition (trypsin-treated rabbit erythrocytes): lowest concentration of glycoprotein that completely inhibited the hemagglutination activity of a lectin solution of titer 4: 31.3 µg/mL
[4]
  hemagglutination inhibition (trypsin-treated rabbit erythrocytes): lowest concentration of glycoprotein that completely inhibited the hemagglutination activity of a lectin solution of titer 4: 62.5 µg/mL
asialo-transferrin
  hemagglutination inhibition (trypsin-treated rabbit erythrocytes): lowest concentration of glycoprotein that completely inhibited the hemagglutination activity of a lectin solution of titer 4: 62.5 µg/mL
[5]
  hemagglutination inhibition (trypsin-treated rabbit erythrocytes): lowest concentration of glycoprotein that completely inhibited the hemagglutination activity of a lectin solution of titer 4: 31.3 µg/mL
fetuin
  hemagglutination inhibition (trypsin-treated rabbit erythrocytes): lowest concentration of glycoprotein that completely inhibited the hemagglutination activity of a lectin solution of titer 4: 1000 µg/mL
transferrin
  hemagglutination inhibition (trypsin-treated rabbit erythrocytes): lowest concentration of glycoprotein that completely inhibited the hemagglutination activity of a lectin solution of titer 4: 500 µg/mL
[6]
  hemagglutination inhibition (trypsin-treated rabbit erythrocytes): lowest concentration of glycoprotein that completely inhibited the hemagglutination activity of a lectin solution of titer 4: 15.6 µg/mL
